In article PMC5719400, “Engineering an aldehyde dehydrogenase toward its substrates, 3-hydroxypropanal and NAD^+, for enhancing the production of 3-hydroxypropionic acid” (Scientific Reports, 2017) one finds Km, kcat and kcat/Km data, which are given here for five proteins.

As usually defined, the kcat is the maximal rate divided by the concentration of active sites. The term kcat/Km denotes the second-order rate constant that governs catalysis at low substrate concentration.

Experiment in all cases: purified protein
What all share (assay type): biochemical, Azospirillum brasilense

Substrate in data set [1]: NC(=O)c1ccc[n+]([C@@H]2O[C@H](COP(=O)(O)OP(=O)(O)OC[C@H]3O[C@@H](n4cnc5c(N)ncnc54)[C@H](O)[C@@H]3O)[C@@H](O)[C@H]2O)c1
Conditions: 3 mM 3-HPA, 100 mM phosphate pH 8, 25 °C, varied: cofactor. An excerpt:
(§1) (α-ketoglutaric semialdehyde dehydrogenase)

Substrate in data set [2]: O=CCCO
Particulars: 2 mM NAD+, 100 mM phosphate pH 8, 25 °C.
Source text: as §1

Substrate in data set [3]: NC(=O)c1ccc[n+]([C@@H]2O[C@H](COP(=O)(O)OP(=O)(O)OC[C@H]3O[C@@H](n4cnc5c(N)ncnc54)[C@H](OP(=O)(O)O)[C@@H]3O)[C@@H](O)[C@H]2O)c1
Particulars: 3 mM 3-HPA, 100 mM phosphate pH 8, 25 °C, varied: cofactor.
Source text: as §1

B1: KGSADH (α-ketoglutaric semialdehyde dehydrogenase) (Azospirillum brasilense; A337R/A442P/P444T/R334Q) (protein)
chain: ANVTYTDTQLLIDGEWVDAASGKTIDVVNPATGKPIGRVAHAGIADLDRALAAAQSGFEAWRKVPAHERAATMRKAAALVRERADAIAQLMTQEQGKPLTEARVEVLSAADIIEWFADEGRRVYGRIVPPRNLGAQQTVVKEPVGPVAAFTPWNFPVNQVVRKLSAALATGCSFLVKAPEETPASPAALLRAFVDAGVPAGVIGLVYGDPAEISSYLIPHPVIRKVTFTGSTPVGKQLASLAGLHMKRATMELGGHAPVIVAEDADVALAVKAAGGAKFRNAGQVCISPTRFLVHNSIRDEFTRALVKHAEGLKVGNGLEEGTTLGALANPRQLTRMASVIDNARKVGASIETGGERIGSEGNFFAPTVIANVPLDADVFNNEPFGPVAAIRGFDKLEEAIAEANRLPFGLAGYAFTRSFANVHLLTQRLEVGMLWINQPPTTWPEMPFGGVKDSGYGSEGGPEALEPYLVTKSVTVMAV
notes: N-terminal His6-tag (pQE80L), expressed in E. coli DH10β, Ni-NTA purified; catalytic residues E253 and C287
On to B1, for which, in the data set “purified protein [1]” (variant 106-QR), the Km is 0.025(±0.0045) mM, the kcat is 4.8 ± 0.93 s⁻¹ and the kcat/Km turned out to be 192000 ± 72500 M⁻¹ s⁻¹. Further, in “purified protein [2]” (variant 106-QR), the Km was 0.29(±0.062) mM, the kcat came to 5 ± 1.2 s⁻¹ and the kcat/Km amounted to 17000 ± 7800 M⁻¹ s⁻¹.

B2: KGSADH (α-ketoglutaric semialdehyde dehydrogenase) (Azospirillum brasilense; A110S/A337R/A442P/K273A/P444T/R334Q) (protein)
chain: ANVTYTDTQLLIDGEWVDAASGKTIDVVNPATGKPIGRVAHAGIADLDRALAAAQSGFEAWRKVPAHERAATMRKAAALVRERADAIAQLMTQEQGKPLTEARVEVLSSADIIEWFADEGRRVYGRIVPPRNLGAQQTVVKEPVGPVAAFTPWNFPVNQVVRKLSAALATGCSFLVKAPEETPASPAALLRAFVDAGVPAGVIGLVYGDPAEISSYLIPHPVIRKVTFTGSTPVGKQLASLAGLHMKRATMELGGHAPVIVAEDADVALAVAAAGGAKFRNAGQVCISPTRFLVHNSIRDEFTRALVKHAEGLKVGNGLEEGTTLGALANPRQLTRMASVIDNARKVGASIETGGERIGSEGNFFAPTVIANVPLDADVFNNEPFGPVAAIRGFDKLEEAIAEANRLPFGLAGYAFTRSFANVHLLTQRLEVGMLWINQPPTTWPEMPFGGVKDSGYGSEGGPEALEPYLVTKSVTVMAV
notes: as for B1
For the protein B2, in the data set “purified protein [1]” (variant 104-QR), the Km is listed as 0.033(±0.0089) mM, the kcat was 5.9 ± 0.61 s⁻¹ and the kcat/Km turned out to be 179000 ± 66700 M⁻¹ s⁻¹. Further, in “purified protein [2]” (variant 104-QR), the Km is on record as 0.43(±0.094) mM, the kcat is 6.7 ± 0.64 s⁻¹ and the kcat/Km stood at 16000 ± 4900 M⁻¹ s⁻¹.

B3: KGSADH (α-ketoglutaric semialdehyde dehydrogenase) (Azospirillum brasilense; A337R/A442P/K273A/P444A/R334Q/T443E) (protein)
chain: ANVTYTDTQLLIDGEWVDAASGKTIDVVNPATGKPIGRVAHAGIADLDRALAAAQSGFEAWRKVPAHERAATMRKAAALVRERADAIAQLMTQEQGKPLTEARVEVLSAADIIEWFADEGRRVYGRIVPPRNLGAQQTVVKEPVGPVAAFTPWNFPVNQVVRKLSAALATGCSFLVKAPEETPASPAALLRAFVDAGVPAGVIGLVYGDPAEISSYLIPHPVIRKVTFTGSTPVGKQLASLAGLHMKRATMELGGHAPVIVAEDADVALAVAAAGGAKFRNAGQVCISPTRFLVHNSIRDEFTRALVKHAEGLKVGNGLEEGTTLGALANPRQLTRMASVIDNARKVGASIETGGERIGSEGNFFAPTVIANVPLDADVFNNEPFGPVAAIRGFDKLEEAIAEANRLPFGLAGYAFTRSFANVHLLTQRLEVGMLWINQPPEAWPEMPFGGVKDSGYGSEGGPEALEPYLVTKSVTVMAV
notes: as for B1
With B3, in “purified protein [1]” (variant 108-QR), the Km is recorded as 0.037(±0.0024) mM, the kcat is 6.1 ± 0.64 s⁻¹ and the kcat/Km turned out to be 165000 ± 28000 M⁻¹ s⁻¹. In addition, in the data set “purified protein [3]” (variant 108-QR), the Km is on record as 0.66(±0.065) mM, the kcat came to 4.5 ± 1.1 s⁻¹ and the kcat/Km amounted to 6900 ± 2300 M⁻¹ s⁻¹. Moreover, in the data set “purified protein [2]” (variant 108-QR), the Km is 0.17(±0.032) mM, the catalytic constant (kcat) stood at 6 ± 1.3 s⁻¹ and the kcat/Km was 35000 ± 14000 M⁻¹ s⁻¹.

B4: KGSADH (α-ketoglutaric semialdehyde dehydrogenase) (Azospirillum brasilense; A337R/R334Q) (protein)
chain: ANVTYTDTQLLIDGEWVDAASGKTIDVVNPATGKPIGRVAHAGIADLDRALAAAQSGFEAWRKVPAHERAATMRKAAALVRERADAIAQLMTQEQGKPLTEARVEVLSAADIIEWFADEGRRVYGRIVPPRNLGAQQTVVKEPVGPVAAFTPWNFPVNQVVRKLSAALATGCSFLVKAPEETPASPAALLRAFVDAGVPAGVIGLVYGDPAEISSYLIPHPVIRKVTFTGSTPVGKQLASLAGLHMKRATMELGGHAPVIVAEDADVALAVKAAGGAKFRNAGQVCISPTRFLVHNSIRDEFTRALVKHAEGLKVGNGLEEGTTLGALANPRQLTRMASVIDNARKVGASIETGGERIGSEGNFFAPTVIANVPLDADVFNNEPFGPVAAIRGFDKLEEAIAEANRLPFGLAGYAFTRSFANVHLLTQRLEVGMLWINQPATPWPEMPFGGVKDSGYGSEGGPEALEPYLVTKSVTVMAV
notes: as for B1
Turning to B4, in the data set “purified protein [1]” (variant WT-QR), the Km was 0.044(±0.0033) mM, the kcat is 7.9 ± 0.75 s⁻¹ and the kcat/Km stood at 180000 ± 30500 M⁻¹ s⁻¹. For the same protein, in “purified protein [3]” (variant WT-QR), the Km was 0.81(±0.15) mM, the kcat stood at 4.4 ± 1.4 s⁻¹ and the kcat/Km worked out at 5400 ± 2700 M⁻¹ s⁻¹. Further, in “purified protein [2]” (variant WT-QR), the Km is listed as 0.55(±0.13) mM, the kcat came out at 6.8 ± 0.35 s⁻¹ and the kcat/Km was 12000 ± 3600 M⁻¹ s⁻¹.

B5: KGSADH (α-ketoglutaric semialdehyde dehydrogenase) (Azospirillum brasilense) (protein)
chain: ANVTYTDTQLLIDGEWVDAASGKTIDVVNPATGKPIGRVAHAGIADLDRALAAAQSGFEAWRKVPAHERAATMRKAAALVRERADAIAQLMTQEQGKPLTEARVEVLSAADIIEWFADEGRRVYGRIVPPRNLGAQQTVVKEPVGPVAAFTPWNFPVNQVVRKLSAALATGCSFLVKAPEETPASPAALLRAFVDAGVPAGVIGLVYGDPAEISSYLIPHPVIRKVTFTGSTPVGKQLASLAGLHMKRATMELGGHAPVIVAEDADVALAVKAAGGAKFRNAGQVCISPTRFLVHNSIRDEFTRALVKHAEGLKVGNGLEEGTTLGALANPRRLTAMASVIDNARKVGASIETGGERIGSEGNFFAPTVIANVPLDADVFNNEPFGPVAAIRGFDKLEEAIAEANRLPFGLAGYAFTRSFANVHLLTQRLEVGMLWINQPATPWPEMPFGGVKDSGYGSEGGPEALEPYLVTKSVTVMAV
notes: as for B1
In the case of B5, the Km in the data set “purified protein [1]” is 0.21(±0.018) mM; in the data set “purified protein [3]”, 2.3(±0.033) mM; in the data set “purified protein [2]”, 1.6(±0.14) mM. For the same protein, the values for the kcat in the data set “purified protein [1]”, in the data set “purified protein [3]” and in “purified protein [2]” were 12 ± 1.7 s⁻¹, 8.6 ± 0.84 s⁻¹ and 15 ± 2.1 s⁻¹, respectively. Also, the figures for the kcat/Km in the data set “purified protein [1]”, in the data set “purified protein [3]” and in the data set “purified protein [2]” were 57000 ± 13000 M⁻¹ s⁻¹, 3700 ± 420 M⁻¹ s⁻¹ and 9000 ± 2100 M⁻¹ s⁻¹, respectively.
